# Positions count from the first letter of the chain named.
# T1: APBA1_1, Q02410
# T1 sequence (Q02410 651-752, limits assumed, looked up): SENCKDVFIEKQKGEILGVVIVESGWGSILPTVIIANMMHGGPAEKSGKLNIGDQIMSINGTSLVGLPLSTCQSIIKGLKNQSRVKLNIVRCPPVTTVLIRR
# T2: ARHGAP21, Q5T5U3
# T2 sequence (Q5T5U3 45-169, limits assumed, looked up): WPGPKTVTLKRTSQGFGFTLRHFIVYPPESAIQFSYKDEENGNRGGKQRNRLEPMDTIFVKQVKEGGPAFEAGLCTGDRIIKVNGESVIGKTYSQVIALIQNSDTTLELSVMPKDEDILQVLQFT
# T3: DFNB31_2, Q9P202
# T3 sequence (Q9P202 274-371, limits assumed, looked up): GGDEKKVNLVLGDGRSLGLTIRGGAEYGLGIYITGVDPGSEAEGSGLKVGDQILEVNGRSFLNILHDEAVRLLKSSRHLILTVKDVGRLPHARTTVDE
# T4: DLG3_2, Q92796
# T4 sequence (Q92796 221-321, limits assumed, looked up): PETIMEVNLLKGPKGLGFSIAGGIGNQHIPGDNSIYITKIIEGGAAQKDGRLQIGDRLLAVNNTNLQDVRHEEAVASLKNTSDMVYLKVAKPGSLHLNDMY
# T5: GRIP1_3, Q9Y3R0
# T5 sequence (Q9Y3R0 247-346, limits assumed, looked up): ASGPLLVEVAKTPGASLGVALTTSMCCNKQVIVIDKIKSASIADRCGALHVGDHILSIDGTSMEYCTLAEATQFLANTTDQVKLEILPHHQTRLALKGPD
# T6: GRIP1_4, Q9Y3R0
# T6 sequence (Q9Y3R0 467-571, limits assumed, looked up): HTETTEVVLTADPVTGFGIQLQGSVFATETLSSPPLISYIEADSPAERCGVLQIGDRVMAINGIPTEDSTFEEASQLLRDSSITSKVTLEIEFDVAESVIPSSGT
# T7: HTRA3, P83110
# T7 sequence (P83110 354-453, limits assumed, looked up): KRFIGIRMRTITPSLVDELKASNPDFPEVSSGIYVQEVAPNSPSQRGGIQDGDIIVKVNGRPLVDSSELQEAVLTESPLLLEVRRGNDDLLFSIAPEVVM
# T8: LIN7B, Q9HAP6
# T8 sequence (Q9HAP6 88-185, limits assumed, looked up): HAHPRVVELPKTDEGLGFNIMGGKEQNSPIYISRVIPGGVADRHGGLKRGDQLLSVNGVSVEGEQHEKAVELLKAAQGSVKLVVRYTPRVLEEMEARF
# T9: LIN7C, Q9NUP9
# T9 sequence (Q9NUP9 88-185, limits assumed, looked up): T8 sequence (Q9HAP6 88-185, limits assumed, looked up) with A2S, D13E, V35I, V40I, Q65H, S79K, R89K, A96S
# T10: MPP7, Q5T2T1
# T10 sequence (Q5T2T1 134-230, limits assumed, looked up): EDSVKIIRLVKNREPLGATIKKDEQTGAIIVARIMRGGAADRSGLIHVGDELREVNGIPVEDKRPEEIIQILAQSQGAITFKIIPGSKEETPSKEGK
# T11: PDZRN3_1, Q9UPQ7
# T11 sequence (Q9UPQ7 244-349, limits assumed, looked up): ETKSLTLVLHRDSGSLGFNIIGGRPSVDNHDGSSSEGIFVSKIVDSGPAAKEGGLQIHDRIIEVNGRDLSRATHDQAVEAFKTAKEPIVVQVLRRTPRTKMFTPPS
# Target: T1, APBA1_1, Q02410
# Assay: holdup assay
# Design: key: below the threshold = too weak to quantify, mostly under pKd 3.1 to 4
# Conditions: plain residues with an end cap or a label only (N-terminal biotin on a linker: ado-ado)
row,pKd,Binder
1,below the threshold,"DDEDRLVIEI [ZNF831, Q5JPB2]"
2,below the threshold,"RHGSCVETSL [TMEM151B, Q8IW70]"

# Target: T2, ARHGAP21, Q5T5U3
# Assay: holdup assay
# Design: key: below the threshold = too weak to quantify, mostly under pKd 3.1 to 4
# Conditions: plain residues with an end cap or a label only (N-terminal biotin on a linker: ado-ado)
row,pKd,Binder
1,below the threshold,"DDEDRLVIEI [ZNF831, Q5JPB2]"
2,4.17,"RHGSCVETSL [TMEM151B, Q8IW70]"

# Target: CASK, O14936
# Assay: holdup assay
# Design: key: below the threshold = too weak to quantify, mostly under pKd 3.1 to 4
# Conditions: plain residues with an end cap or a label only (N-terminal biotin on a linker: ado-ado)
# Sequence of CASK, O14936 (O14936 487-570): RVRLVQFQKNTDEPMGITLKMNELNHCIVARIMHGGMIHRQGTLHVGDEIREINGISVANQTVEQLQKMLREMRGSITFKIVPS
row,pKd,Binder
1,below the threshold,"DDEDRLVIEI [ZNF831, Q5JPB2]"
2,below the threshold,"RHGSCVETSL [TMEM151B, Q8IW70]"

# Target: T3, DFNB31_2, Q9P202
# Assay: holdup assay
# Design: key: below the threshold = too weak to quantify, mostly under pKd 3.1 to 4
# Conditions: plain residues with an end cap or a label only (N-terminal biotin on a linker: ado-ado)
row,pKd,Binder
1,below the threshold,"DDEDRLVIEI [ZNF831, Q5JPB2]"
2,below the threshold,"RHGSCVETSL [TMEM151B, Q8IW70]"

# Target: T4, DLG3_2, Q92796
# Assay: holdup assay
# Design: key: below the threshold = too weak to quantify, mostly under pKd 3.1 to 4
# Conditions: plain residues with an end cap or a label only (N-terminal biotin on a linker: ado-ado)
row,pKd,Binder
1,4,"DDEDRLVIEI [ZNF831, Q5JPB2]"
2,4.53,"RHGSCVETSL [TMEM151B, Q8IW70]"

# Target: DLG4_1, P78352
# Assay: holdup assay
# Design: key: below the threshold = too weak to quantify, mostly under pKd 3.1 to 4
# Conditions: plain residues with an end cap or a label only (N-terminal biotin on a linker: ado-ado)
# Sequence of DLG4_1, P78352 (P78352 62-152): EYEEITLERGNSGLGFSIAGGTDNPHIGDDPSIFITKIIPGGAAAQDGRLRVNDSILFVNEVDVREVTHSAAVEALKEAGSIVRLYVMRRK
row,pKd,Binder
1,below the threshold,"DDEDRLVIEI [ZNF831, Q5JPB2]"
2,3.98,"RHGSCVETSL [TMEM151B, Q8IW70]"

# Target: FRMPD3, Q5JV73
# Assay: holdup assay
# Design: key: below the threshold = too weak to quantify, mostly under pKd 3.1 to 4
# Conditions: plain residues with an end cap or a label only (N-terminal biotin on a linker: ado-ado)
# Sequence of FRMPD3, Q5JV73 (Q5JV73 12-100): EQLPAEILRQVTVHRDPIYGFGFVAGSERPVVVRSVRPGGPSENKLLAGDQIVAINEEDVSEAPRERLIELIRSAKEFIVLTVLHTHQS
row,pKd,Binder
1,below the threshold,"DDEDRLVIEI [ZNF831, Q5JPB2]"
2,3.5,"RHGSCVETSL [TMEM151B, Q8IW70]"

# Target: FRMPD4, Q14CM0
# Assay: holdup assay
# Design: key: below the threshold = too weak to quantify, mostly under pKd 3.1 to 4
# Conditions: plain residues with an end cap or a label only (N-terminal biotin on a linker: ado-ado)
# Sequence of FRMPD4, Q14CM0 (Q14CM0 67-160): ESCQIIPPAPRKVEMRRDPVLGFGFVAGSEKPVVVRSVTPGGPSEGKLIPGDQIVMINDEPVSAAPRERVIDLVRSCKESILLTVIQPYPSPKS
row,pKd,Binder
1,below the threshold,"DDEDRLVIEI [ZNF831, Q5JPB2]"
2,4.51,"RHGSCVETSL [TMEM151B, Q8IW70]"

# Target: GIPC2, Q8TF65
# Assay: holdup assay
# Design: key: below the threshold = too weak to quantify, mostly under pKd 3.1 to 4
# Conditions: plain residues with an end cap or a label only (N-terminal biotin on a linker: ado-ado)
# Sequence of GIPC2, Q8TF65 (Q8TF65 112-203): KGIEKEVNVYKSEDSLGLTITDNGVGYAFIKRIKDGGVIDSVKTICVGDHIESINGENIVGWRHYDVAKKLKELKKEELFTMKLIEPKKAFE
row,pKd,Binder
1,below the threshold,"DDEDRLVIEI [ZNF831, Q5JPB2]"
2,3.92,"RHGSCVETSL [TMEM151B, Q8IW70]"

# Target: GORASP1, Q9BQQ3
# Assay: holdup assay
# Design: key: below the threshold = too weak to quantify, mostly under pKd 3.1 to 4
# Conditions: plain residues with an end cap or a label only (N-terminal biotin on a linker: ado-ado)
# Sequence of GORASP1, Q9BQQ3 (Q9BQQ3 1-208): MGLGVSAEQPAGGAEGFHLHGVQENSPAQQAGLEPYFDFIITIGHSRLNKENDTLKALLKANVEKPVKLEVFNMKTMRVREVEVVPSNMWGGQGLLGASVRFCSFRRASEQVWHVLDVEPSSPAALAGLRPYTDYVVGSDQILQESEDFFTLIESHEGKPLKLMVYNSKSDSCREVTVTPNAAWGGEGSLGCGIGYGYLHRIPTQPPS
row,pKd,Binder
1,4.12,"DDEDRLVIEI [ZNF831, Q5JPB2]"
2,below the threshold,"RHGSCVETSL [TMEM151B, Q8IW70]"

# Target: GORASP2, Q9H8Y8
# Assay: holdup assay
# Design: key: below the threshold = too weak to quantify, mostly under pKd 3.1 to 4
# Conditions: plain residues with an end cap or a label only (N-terminal biotin on a linker: ado-ado)
row,pKd,Binder
1,4.72,"DDEDRLVIEI [ZNF831, Q5JPB2]"
2,below the threshold,"RHGSCVETSL [TMEM151B, Q8IW70]"

# Target: GRID2IP_1, A4D2P6
# Assay: holdup assay
# Design: key: below the threshold = too weak to quantify, mostly under pKd 3.1 to 4
# Conditions: plain residues with an end cap or a label only (N-terminal biotin on a linker: ado-ado)
# Sequence of GRID2IP_1, A4D2P6 (A4D2P6 1-87): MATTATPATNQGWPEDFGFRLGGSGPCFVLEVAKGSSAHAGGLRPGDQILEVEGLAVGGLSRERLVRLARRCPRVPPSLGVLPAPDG
row,pKd,Binder
1,below the threshold,"DDEDRLVIEI [ZNF831, Q5JPB2]"
2,below the threshold,"RHGSCVETSL [TMEM151B, Q8IW70]"

# Target: T5, GRIP1_3, Q9Y3R0
# Assay: holdup assay
# Design: key: below the threshold = too weak to quantify, mostly under pKd 3.1 to 4
# Conditions: plain residues with an end cap or a label only (N-terminal biotin on a linker: ado-ado)
row,pKd,Binder
1,below the threshold,"DDEDRLVIEI [ZNF831, Q5JPB2]"
2,below the threshold,"RHGSCVETSL [TMEM151B, Q8IW70]"

# Target: T6, GRIP1_4, Q9Y3R0
# Assay: holdup assay
# Design: key: below the threshold = too weak to quantify, mostly under pKd 3.1 to 4
# Conditions: plain residues with an end cap or a label only (N-terminal biotin on a linker: ado-ado)
row,pKd,Binder
1,below the threshold,"DDEDRLVIEI [ZNF831, Q5JPB2]"
2,below the threshold,"RHGSCVETSL [TMEM151B, Q8IW70]"

# Target: GRIP2_5, Q9C0E4
# Assay: holdup assay
# Design: key: below the threshold = too weak to quantify, mostly under pKd 3.1 to 4
# Conditions: plain residues with an end cap or a label only (N-terminal biotin on a linker: ado-ado)
# Sequence of GRIP2_5, Q9C0E4 (Q9C0E4 544-642): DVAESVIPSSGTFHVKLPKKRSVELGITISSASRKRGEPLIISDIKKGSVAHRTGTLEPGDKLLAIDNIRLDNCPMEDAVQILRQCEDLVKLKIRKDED
row,pKd,Binder
1,below the threshold,"DDEDRLVIEI [ZNF831, Q5JPB2]"
2,below the threshold,"RHGSCVETSL [TMEM151B, Q8IW70]"

# Target: T7, HTRA3, P83110
# Assay: holdup assay
# Design: key: below the threshold = too weak to quantify, mostly under pKd 3.1 to 4
# Conditions: plain residues with an end cap or a label only (N-terminal biotin on a linker: ado-ado)
row,pKd,Binder
1,4,"DDEDRLVIEI [ZNF831, Q5JPB2]"
2,below the threshold,"RHGSCVETSL [TMEM151B, Q8IW70]"

# Target: Inadl_2, Q8NI35
# Assay: holdup assay
# Design: key: below the threshold = too weak to quantify, mostly under pKd 3.1 to 4
# Conditions: plain residues with an end cap or a label only (N-terminal biotin on a linker: ado-ado)
# Sequence of Inadl_2, Q8NI35 (Q8NI35 238-335): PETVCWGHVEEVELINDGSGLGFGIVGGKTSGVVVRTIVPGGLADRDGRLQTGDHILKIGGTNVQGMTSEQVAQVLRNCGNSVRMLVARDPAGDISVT
row,pKd,Binder
1,3.57,"DDEDRLVIEI [ZNF831, Q5JPB2]"
2,below the threshold,"RHGSCVETSL [TMEM151B, Q8IW70]"

# Target: T8, LIN7B, Q9HAP6
# Assay: holdup assay
# Design: key: below the threshold = too weak to quantify, mostly under pKd 3.1 to 4
# Conditions: plain residues with an end cap or a label only (N-terminal biotin on a linker: ado-ado)
row,pKd,Binder
1,3.56,"DDEDRLVIEI [ZNF831, Q5JPB2]"
2,4.45,"RHGSCVETSL [TMEM151B, Q8IW70]"

# Target: T9, LIN7C, Q9NUP9
# Assay: holdup assay
# Design: key: below the threshold = too weak to quantify, mostly under pKd 3.1 to 4
# Conditions: plain residues with an end cap or a label only (N-terminal biotin on a linker: ado-ado)
row,pKd,Binder
1,below the threshold,"DDEDRLVIEI [ZNF831, Q5JPB2]"
2,4.43,"RHGSCVETSL [TMEM151B, Q8IW70]"

# Target: LNX1_1, Q8TBB1
# Assay: holdup assay
# Design: key: below the threshold = too weak to quantify, mostly under pKd 3.1 to 4
# Conditions: plain residues with an end cap or a label only (N-terminal biotin on a linker: ado-ado)
# Sequence of LNX1_1, Q8TBB1 (Q8TBB1 261-371): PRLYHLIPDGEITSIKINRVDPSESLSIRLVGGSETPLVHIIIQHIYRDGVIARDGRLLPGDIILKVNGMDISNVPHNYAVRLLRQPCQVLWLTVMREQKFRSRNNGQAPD
row,pKd,Binder
1,below the threshold,"DDEDRLVIEI [ZNF831, Q5JPB2]"
2,3.66,"RHGSCVETSL [TMEM151B, Q8IW70]"

# Target: MAGI2_3, Q86UL8
# Assay: holdup assay
# Design: key: below the threshold = too weak to quantify, mostly under pKd 3.1 to 4
# Conditions: plain residues with an end cap or a label only (N-terminal biotin on a linker: ado-ado)
# Sequence of MAGI2_3, Q86UL8 (Q86UL8 600-682): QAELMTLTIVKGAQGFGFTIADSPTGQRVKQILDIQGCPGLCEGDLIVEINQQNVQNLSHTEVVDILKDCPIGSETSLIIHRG
row,pKd,Binder
1,below the threshold,"DDEDRLVIEI [ZNF831, Q5JPB2]"
2,3.5,"RHGSCVETSL [TMEM151B, Q8IW70]"

# Target: MAGI2_4, Q86UL8
# Assay: holdup assay
# Design: key: below the threshold = too weak to quantify, mostly under pKd 3.1 to 4
# Conditions: plain residues with an end cap or a label only (N-terminal biotin on a linker: ado-ado)
# Sequence of MAGI2_4, Q86UL8 (Q86UL8 772-865): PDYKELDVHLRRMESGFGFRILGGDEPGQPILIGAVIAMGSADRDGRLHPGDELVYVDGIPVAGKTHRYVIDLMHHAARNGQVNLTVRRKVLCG
row,pKd,Binder
1,below the threshold,"DDEDRLVIEI [ZNF831, Q5JPB2]"
2,below the threshold,"RHGSCVETSL [TMEM151B, Q8IW70]"

# Target: T10, MPP7, Q5T2T1
# Assay: holdup assay
# Design: key: below the threshold = too weak to quantify, mostly under pKd 3.1 to 4
# Conditions: plain residues with an end cap or a label only (N-terminal biotin on a linker: ado-ado)
row,pKd,Binder
1,3.64,"DDEDRLVIEI [ZNF831, Q5JPB2]"
2,below the threshold,"RHGSCVETSL [TMEM151B, Q8IW70]"

# Target: NHERF4_2, Q86UT5
# Assay: holdup assay
# Design: key: below the threshold = too weak to quantify, mostly under pKd 3.1 to 4
# Conditions: plain residues with an end cap or a label only (N-terminal biotin on a linker: ado-ado)
# Sequence of NHERF4_2, Q86UT5 (Q86UT5 220-308): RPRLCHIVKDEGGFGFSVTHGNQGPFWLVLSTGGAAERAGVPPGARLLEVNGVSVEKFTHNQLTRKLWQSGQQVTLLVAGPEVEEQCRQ
row,pKd,Binder
1,below the threshold,"DDEDRLVIEI [ZNF831, Q5JPB2]"
2,below the threshold,"RHGSCVETSL [TMEM151B, Q8IW70]"

# Target: T11, PDZRN3_1, Q9UPQ7
# Assay: holdup assay
# Design: key: below the threshold = too weak to quantify, mostly under pKd 3.1 to 4
# Conditions: plain residues with an end cap or a label only (N-terminal biotin on a linker: ado-ado)
row,pKd,Binder
1,below the threshold,"DDEDRLVIEI [ZNF831, Q5JPB2]"
2,5.2,"RHGSCVETSL [TMEM151B, Q8IW70]"
